Assay results: PMC11673460

Biological target: cobalamin binding domain of CarH from Thermus thermophilus (Thermus thermophilus)

- aggregation ratio (area of bacteria in aggregates/total area occupied by all bacteria) of E. coli MG1655 displaying CarH (CarH‐eCPX), with AdoB12Cy5, in the dark: 50%
- aggregation ratio of CarH‐displaying E. coli with AdoB12Cy5 under green or red light (aggregates not separated by far‐red light): < 20%
- aggregation ratio of CarH‐displaying E. coli with AdoB12Cy7.5 under green, red or far‐red light: < 20%
- aggregation ratio of CarH‐displaying E. coli with AdoB12 under green light (aggregates stable under red and far‐red light): < 20%
- aggregation ratio of E. coli MG1655 displaying CarH (CarH‐eCPX), with AdoB12, in the dark: 50%
- aggregation ratio of E. coli MG1655 displaying CarH (CarH‐eCPX), with AdoB12Cy7.5, in the dark: 50%
Substance: cobalamin binding domain of CarH from Thermus thermophilus (domain or fragment)
